# Test results from the supplement of paper PMC10567573.
# B1: TFE3 (parent)
# chain: FHLGLEDILMEEEEGVVGGLSGGA
# Variants of: B1
# Test: protein stability index of a GFP-peptide fusion (GPS, HEK-293T) (PSI 1-6); higher = more stable
# Settings: c terminus: a fixed tail appended
# 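Note: lentivirally expressed fusions sorted by FACS into six bins by GFP to DsRed ratio, PSI derived from sequencing read proportions per bin multiplied by bin number.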
row,Variant,protein stability index
1,FHLGLEDILMEEEEGVVGGLSGCA,3.21
2,FHLGLEDILMEEEEGVVGGLSGHA,3.43
3,FHLGLEDILMEEEEGVVGGLSGTA,3.56
4,FHLGLEDILMEEEEGVVGGLSGDA,4.04
5,FHLGLEDILMEEEEGVVGGLSGMA,3.19
6,FHLGLEDILMEEEEGVVGGLSGVA,3.98
7,FHLGLEDILMEEEEGVVGGLSGRA,3.29
8,FHLGLEDILMEEEEGVVGGLSGWA,2.15
9,FHLGLEDILMEEEEGVVGGLSGNA,3.96
10,FHLGLEDILMEEEEGVVGGLSGFA,2.7
11,FHLGLEDILMEEEEGVVGGLSCGA,3.3
12,FHLGLEDILMEEEEGVVGGLSIGA,3.19
13,FHLGLEDILMEEEEGVVGGLSMGA,3.59
14,FHLGLEDILMEEEEGVVGGLSHGA,3.8
15,FHLGLEDILMEEEEGVVGGLSNGA,3.72
16,FHLGLEDILMEEEEGVVGGLSYGA,2.28
17,FHLGLEDILMEEEEGVVGGLSVGA,3.9
18,FHLGLEDILMEEEEGVVGGLSLGA,3.31
19,FHLGLEDILMEEEEGVVGGLSSGA,3.57
20,FHLGLEDILMEEEEGVVGGLSTGA,4.26
21,FHLGLEDILMEEEEGVVGGLSQGA,3.67
22,FHLGLEDILMEEEEGNVGGLSGGA,3.68
23,FHLGLEDILMEEEEGGVGGLSGGA,3.97
24,FHLGLEDILMEEEEGAVGGLSGGA,3.87

row,Variant,protein stability index
1,FHLGLEDILMEEEEGEVGGLSGGA,4.3
2,FHLGLEDILMEEEEGSVGGLSGGA,3.82
3,FHLGLEDILMEEEEGTVGGLSGGA,4
4,FHLGLEDILMEEEEGPVGGLSGGA,3.08
5,FHLGLEDILMEEEEGDVGGLSGGA,4.07
6,FHLPLEDILMEEEEGVVGGLSGGA,3.05
7,FHLNLEDILMEEEEGVVGGLSGGA,3.48
8,FHLWLEDILMEEEEGVVGGLSGGA,2.67
9,FHLELEDILMEEEEGVVGGLSGGA,4.89
10,FHLFLEDILMEEEEGVVGGLSGGA,2.01
11,FHLCLEDILMEEEEGVVGGLSGGA,2.67
12,FHLDLEDILMEEEEGVVGGLSGGA,3.99
13,FHLGLEDIFMEEEEGVVGGLSGGA,3.29
14,FHLGLEDIEMEEEEGVVGGLSGGA,4.57
15,FHLGLEDIIMEEEEGVVGGLSGGA,3.7
16,FHLGLEDIPMEEEEGVVGGLSGGA,4.21
17,FHLGLEDINMEEEEGVVGGLSGGA,4.33
18,FHLGLEDIRMEEEEGVVGGLSGGA,4.5
19,FHLGLEDIMMEEEEGVVGGLSGGA,4.1
20,FHLGLEDICMEEEEGVVGGLSGGA,4.06
21,FHLGLEDISMEEEEGVVGGLSGGA,3.69
22,FHLGLEDILMEEEEGVVNGLSGGA,3.77
23,FHLGLEDILMEEEEGVVRGLSGGA,3.72
24,FHLGLEDILMEEEEGVVEGLSGGA,4.1

row,Variant,protein stability index
1,FHLGLEDILMEEEEGVVTGLSGGA,3.5
2,FHLGLEDILMEEEEGVVVGLSGGA,3.93
3,FHLGLEDILMEEEEGVVMGLSGGA,3.6
4,FHLGLEDILMEEEEGVVLGLSGGA,3.3
5,FHLGLEDILMEEAEGVVGGLSGGA,2.83
6,FHLGLEDILMEEPEGVVGGLSGGA,2.41
7,FHLGLEDILMEEHEGVVGGLSGGA,3.19
8,FHLGLEDILMEEIEGVVGGLSGGA,1.88
9,FHLGLEDILMEECEGVVGGLSGGA,2.16
10,FHLGLEDILMEENEGVVGGLSGGA,3.55
11,HHLGLEDILMEEEEGVVGGLSGGA,5.11
12,MHLGLEDILMEEEEGVVGGLSGGA,4.85
13,SHLGLEDILMEEEEGVVGGLSGGA,4.96
14,LHLGLEDILMEEEEGVVGGLSGGA,4.36
15,KHLGLEDILMEEEEGVVGGLSGGA,5.06
16,VHLGLEDILMEEEEGVVGGLSGGA,4.56
17,NHLGLEDILMEEEEGVVGGLSGGA,5.56
18,CHLGLEDILMEEEEGVVGGLSGGA,4.89
19,AHLGLEDILMEEEEGVVGGLSGGA,5.2
20,DHLGLEDILMEEEEGVVGGLSGGA,5.21
21,IHLGLEDILMEEEEGVVGGLSGGA,4.57
22,FHLGLEDILMEEEEWVVGGLSGGA,2.3
23,FHLGLEDILMEEEEIVVGGLSGGA,2.9
24,FHLGLEDILMEEEEDVVGGLSGGA,4.19

row,Variant,protein stability index
1,FHLGLEDILMEEEEFVVGGLSGGA,2.42
2,FHLGLEDILMEEEEMVVGGLSGGA,3.05
3,FHLGLEDILMEEEERVVGGLSGGA,4.03
4,FHLGLEDILMEEEEPVVGGLSGGA,3.59
5,FHLGLEDILMEEEEAVVGGLSGGA,4.1
6,FHLGLEDILMEEEEVVVGGLSGGA,3.64
7,FHLGLEDILMEEEECVVGGLSGGA,3.24
8,FHLGLEDILMEEEEGVIGGLSGGA,3.92
9,FHLGLEDILMEEEEGVRGGLSGGA,3.8
10,FHLGLEDILMEEEEGVTGGLSGGA,3.95
11,FHLGLEDILMEEEEGVSGGLSGGA,4.13
12,FHLGLEDILMEEEEGVFGGLSGGA,2.88
13,FHLGLEDILMEEEEGVKGGLSGGA,3.77
14,FHLGLEDILMEEEEGVWGGLSGGA,2.72
15,FHLGLEDILMEEEEGVCGGLSGGA,4.01
16,FHLGLEDILMEEEEGVAGGLSGGA,3.54
17,FHLGLEDILMEEEEGVEGGLSGGA,3.64
18,FHLGLEDILMEEEEGVYGGLSGGA,3.03
19,FHLGLEDILMEEEEGVPGGLSGGA,3.63
20,FHLGLEDILMEEECGVVGGLSGGA,2.73
21,FHLGLEDILMEEEGGVVGGLSGGA,2.94
22,FHLGLEDILMEEEDGVVGGLSGGA,3.82
23,FHLGLEDILMEEEHGVVGGLSGGA,2.54
24,FHLGLEDILMEEERGVVGGLSGGA,3.55

row,Variant,protein stability index
1,FHLGLEDILMEEEKGVVGGLSGGA,3.34
2,FHLGLEDILMEEEAGVVGGLSGGA,3.17
3,FHLGLEDILMEEEIGVVGGLSGGA,2.22
4,FHLGLEDILMEEELGVVGGLSGGA,2.67
5,FALGLEDILMEEEEGVVGGLSGGA,4.12
6,FMLGLEDILMEEEEGVVGGLSGGA,4.29
7,FTLGLEDILMEEEEGVVGGLSGGA,4.23
8,FKLGLEDILMEEEEGVVGGLSGGA,4.38
9,FVLGLEDILMEEEEGVVGGLSGGA,2.75
10,FYLGLEDILMEEEEGVVGGLSGGA,3.56
11,FILGLEDILMEEEEGVVGGLSGGA,2.52
12,FQLGLEDILMEEEEGVVGGLSGGA,4.44
13,FHLGLEDILMKEEEGVVGGLSGGA,3.35
14,FHLGLEDILMTEEEGVVGGLSGGA,2.97
15,FHLGLEDILMNEEEGVVGGLSGGA,3.11
16,FHLGLEDILMREEEGVVGGLSGGA,3.33
17,FHLGLEDILMCEEEGVVGGLSGGA,2.6
18,FHLGLEDILMSEEEGVVGGLSGGA,2.95
19,FHLGLEDILMVEEEGVVGGLSGGA,2.67
20,FHLGLEDILMEEEEGVVGGVSGGA,4.69
21,FHLGLEDILMEEEEGVVGGDSGGA,4.92
22,FHLGLEDILMEEEEGVVGGCSGGA,3.91
23,FHLGLEDILMEEEEGVVGGGSGGA,3.98
24,FHLGLEDILMEEEEGVVGGESGGA,4.99

row,Variant,protein stability index
1,FHLGLEDILMEEEEGVVGGYSGGA,3.41
2,FHLGLEDILMEEEEGVVGGQSGGA,4.47
3,FHLGLEDILMEEEEGVVGGPSGGA,3.79
4,FHLGLEDELMEEEEGVVGGLSGGA,4.72
5,FHLGLEDLLMEEEEGVVGGLSGGA,3.78
6,FHLGLEDVLMEEEEGVVGGLSGGA,4.08
7,FHLGLEAILMEEEEGVVGGLSGGA,2.34
8,FHLGLEFILMEEEEGVVGGLSGGA,2.28
9,FHLGLERILMEEEEGVVGGLSGGA,2.16
10,FHLGLEQILMEEEEGVVGGLSGGA,3.19
11,FHLGLEGILMEEEEGVVGGLSGGA,3.54
12,FHLGLENILMEEEEGVVGGLSGGA,3.04
13,FHLGLEIILMEEEEGVVGGLSGGA,2.25
14,FHLGLEDILMEEEEGVVGILSGGA,2.87
15,FHLGLEDILMEEEEGVVGTLSGGA,3.48
16,FHLGLEDILMEEEEGVVGDLSGGA,4.69
17,FHLGLEDILMEEEEGVVGKLSGGA,3.34
18,FHLGLEDILMEEEEGVVGCLSGGA,3.43
19,FHLGLEDILMEEEEGVVGLLSGGA,3.25
20,FHLGLEDILMEEEEGVVGHLSGGA,3.47
21,FHLGLEDILVEEEEGVVGGLSGGA,3.83
22,FHLGLEDILIEEEEGVVGGLSGGA,3.81
23,FHLGLEDILREEEEGVVGGLSGGA,3.23
24,FHLGLEDILDEEEEGVVGGLSGGA,4.13

row,Variant,protein stability index
1,FHLGLEDILFEEEEGVVGGLSGGA,3.83
2,FHLGLEDILKEEEEGVVGGLSGGA,3.94
3,FHLGLEDILNEEEEGVVGGLSGGA,3.23
4,FHMGLEDILMEEEEGVVGGLSGGA,3.92
5,FHGGLEDILMEEEEGVVGGLSGGA,3.44
6,FHEGLEDILMEEEEGVVGGLSGGA,5.06
7,FHCGLEDILMEEEEGVVGGLSGGA,2.34
8,FHQGLEDILMEEEEGVVGGLSGGA,4.22
9,FHTGLEDILMEEEEGVVGGLSGGA,4.5
10,FHVGLEDILMEEEEGVVGGLSGGA,4.14
11,FHLGLEDILMEEEEGVVGGLSGGD,4.17
12,FHLGLEDILMEEEEGVVGGLSGGT,3.52
13,FHLGLEDILMEEEEGVVGGLSGGR,3.86
14,FHLGLEDILMEEEEGVVGGLSGGC,3.73
15,FHLGLEDILMEEEEGVVGGLSGGQ,4.24
16,FHLGLEDILMEEEEGVVGGLSGGS,3.82
17,FHLGLPDILMEEEEGVVGGLSGGA,3.02
18,FHLGLVDILMEEEEGVVGGLSGGA,2.34
19,FHLGLNDILMEEEEGVVGGLSGGA,2.73
20,FHLGLLDILMEEEEGVVGGLSGGA,3.26
21,FHLGLQDILMEEEEGVVGGLSGGA,3.31
22,FHLGLKDILMEEEEGVVGGLSGGA,2.68
23,FHLGLEDILMEEEEGVVGGLIGGA,3.27
24,FHLGLEDILMEEEEGVVGGLAGGA,3.9

row,Variant,protein stability index
1,FHLGLEDILMEEEEGVVGGLVGGA,3.81
2,FHLGLEDILMEEEEGVVGGLQGGA,4.07
3,FHLGLEDILMEEEEGVVGGLWGGA,2.3
4,FHLGLEDILMEEEEGVVGGLKGGA,3.48
5,FHLGLEDILMEEEEGVVGGLNGGA,3.6
6,FHLGQEDILMEEEEGVVGGLSGGA,4.46
7,FHLGKEDILMEEEEGVVGGLSGGA,3.76
8,FHLGIEDILMEEEEGVVGGLSGGA,3.7
9,FHLGEEDILMEEEEGVVGGLSGGA,4.96
10,FHLGPEDILMEEEEGVVGGLSGGA,3.59
11,FHLGSEDILMEEEEGVVGGLSGGA,4.37
12,FHLGVEDILMEEEEGVVGGLSGGA,4.53
13,FHLGWEDILMEEEEGVVGGLSGGA,4.21
14,FHLGNEDILMEEEEGVVGGLSGGA,3.85
15,FHLGLEDILMECEEGVVGGLSGGA,2.83
16,FHLGLEDILMESEEGVVGGLSGGA,3.29
17,FHLGLEDILMEREEGVVGGLSGGA,2.47
18,FHLGLEDILMEWEEGVVGGLSGGA,1.76
19,FHLGLEDILMEMEEGVVGGLSGGA,2.29
20,FHLGLEDILMEVEEGVVGGLSGGA,1.74
